Here are results for 6 molecules from patent US20250161408A1, “PEPTIDIC INHIBITORS OF AMYLOID SELF- AND CROSS-ASSEMBLY” (published 2025).

Non-standard residues stand in square brackets, D forms with d. NMeF = CN[C@@H](Cc1ccccc1)C(=O)O; NMeL = CN[C@@H](CC(C)C)C(=O)O; NMeV = CN[C@H](C(=O)O)C(C)C; Nle = CCCC[C@H](N)C(=O)O

The target in assay [1] is FITC-Aβ42 (Homo sapiens (Human), UniProt P05067, N-terminal fluorescein-isothiocyanate-β-Ala). As to the kind of experiment: fluorescence spectroscopic titration of FITC-Aβ42 (5 nM, pH 7.4) with the ACM; app. KD. The protocol: (§1) Fluorescence spectroscopic studies were performed with a Jasco FP-6500 fluorescence spectrophotometer. Briefly, excitation was at 492 nm and spectra were measured between 500 and 600 nm. All titrations were performed in freshly made solutions of synthetic N-terminal fluorescently labeled peptide (5 nM) and various amounts of unlabeled peptide in 10 mM sodium phosphate buffer, pH 7.4 (1% HFIP) within 2-5 min following solution preparation. […] Apparent binding affinities (app. KDs) were estimated by using 1/1 binding models. However, due to the high self-assembly propensities of involved peptides more complex models might also apply.

For assay [2], the target named is T1, Fluos-IAPP (human, UniProt P10997, N-terminal fluorescein).
T1 peptide: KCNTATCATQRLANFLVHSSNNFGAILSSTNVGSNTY
As to the kind of experiment: fluorescence spectroscopic titration of Fluos-IAPP (5 nM, pH 7.4) with the ACM; app. KD. As to the method:
On the right side of each figure panel, the corresponding binding curves are shown; data are means±SD from 3 binding curves. […] KDs (means±SD from 3 binding curves) are in Table 1.
as §1, with “apply. […] KDs are means (±SD) from three binding curves derived from three independent titration assays.” for “apply.”

The target of assay [3] is T2, Fluos-Nle3-VF (N-terminal 5,6-carboxyfluorescein; X = norleucine (Nle); N-methyl on Val18 and Phe20).
T2 peptide: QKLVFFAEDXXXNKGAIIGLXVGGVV
As to the kind of experiment: self-assembly: fluorescence spectroscopic titration of Fluos-Nle3-VF (5 nM) with Nle3-VF; app. KD. As to the method:
as §1, with “apply. […] KDs are means (±SD) from three binding curves derived from three independent titration assays.” for “apply.”

B1: Nle3-LF (peptide)
peptide: H-QK[NMeL]V[NMeF]FAED[Nle][Nle][Nle]NKGAIIGL[Nle]VGGVV-OH
SMILES: CCCC[C@H](NC(=O)[C@H](CC(=O)O)NC(=O)[C@H](CCC(=O)O)NC(=O)[C@H](C)NC(=O)[C@H](Cc1ccccc1)NC(=O)[C@H](Cc1ccccc1)N(C)C(=O)[C@@H](NC(=O)[C@H](CC(C)C)N(C)C(=O)[C@H](CCCCN)NC(=O)[C@@H](N)CCC(N)=O)C(C)C)C(=O)N[C@@H](CCCC)C(=O)N[C@@H](CCCC)C(=O)N[C@@H](CC(N)=O)C(=O)N[C@@H](CCCCN)C(=O)NCC(=O)N[C@@H](C)C(=O)N[C@H](C(=O)N[C@H](C(=O)NCC(=O)N[C@@H](CC(C)C)C(=O)N[C@@H](CCCC)C(=O)N[C@H](C(=O)NCC(=O)NCC(=O)N[C@H](C(=O)N[C@H](C(=O)O)C(C)C)C(C)C)C(C)C)[C@@H](C)CC)[C@@H](C)CC
Consider B1, for which the Kd was 11.1 nM in assay [1] and 55.4 nM in assay [2].

B2: F3-VF (peptide)
peptide: H-QKL[NMeV]F[NMeF]AEDFFFNKGAIIGL[Nle]VGGVV-OH
SMILES: CCCC[C@H](NC(=O)[C@H](CC(C)C)NC(=O)CNC(=O)[C@@H](NC(=O)[C@@H](NC(=O)[C@H](C)NC(=O)CNC(=O)[C@H](CCCCN)NC(=O)[C@H](CC(N)=O)NC(=O)[C@H](Cc1ccccc1)NC(=O)[C@H](Cc1ccccc1)NC(=O)[C@H](Cc1ccccc1)NC(=O)[C@H](CC(=O)O)NC(=O)[C@H](CCC(=O)O)NC(=O)[C@H](C)NC(=O)[C@H](Cc1ccccc1)N(C)C(=O)[C@H](Cc1ccccc1)NC(=O)[C@H](C(C)C)N(C)C(=O)[C@H](CC(C)C)NC(=O)[C@H](CCCCN)NC(=O)[C@@H](N)CCC(N)=O)[C@@H](C)CC)[C@@H](C)CC)C(=O)N[C@H](C(=O)NCC(=O)NCC(=O)N[C@H](C(=O)N[C@H](C(=O)O)C(C)C)C(C)C)C(C)C
With B2, the Kd amounted to 161 nM in assay [1] and 15 nM in assay [2].

B3: Nle3-VF (peptide)
peptide: H-QKL[NMeV]F[NMeF]AED[Nle][Nle][Nle]NKGAIIGL[Nle]VGGVV-OH
SMILES: CCCC[C@H](NC(=O)[C@H](CC(=O)O)NC(=O)[C@H](CCC(=O)O)NC(=O)[C@H](C)NC(=O)[C@H](Cc1ccccc1)N(C)C(=O)[C@H](Cc1ccccc1)NC(=O)[C@H](C(C)C)N(C)C(=O)[C@H](CC(C)C)NC(=O)[C@H](CCCCN)NC(=O)[C@@H](N)CCC(N)=O)C(=O)N[C@@H](CCCC)C(=O)N[C@@H](CCCC)C(=O)N[C@@H](CC(N)=O)C(=O)N[C@@H](CCCCN)C(=O)NCC(=O)N[C@@H](C)C(=O)N[C@H](C(=O)N[C@H](C(=O)NCC(=O)N[C@@H](CC(C)C)C(=O)N[C@@H](CCCC)C(=O)N[C@H](C(=O)NCC(=O)NCC(=O)N[C@H](C(=O)N[C@H](C(=O)O)C(C)C)C(C)C)C(C)C)[C@@H](C)CC)[C@@H](C)CC
Turning to B3, the Kd in assay [1] turned out to be 14.5 nM; in assay [2], 69.5 nM; in assay [3], 51.9 nM.

B4: L3-VF (peptide)
peptide: H-QKL[NMeV]F[NMeF]AEDLLLNKGAIIGL[Nle]VGGVV-OH
SMILES: CCCC[C@H](NC(=O)[C@H](CC(C)C)NC(=O)CNC(=O)[C@@H](NC(=O)[C@@H](NC(=O)[C@H](C)NC(=O)CNC(=O)[C@H](CCCCN)NC(=O)[C@H](CC(N)=O)NC(=O)[C@H](CC(C)C)NC(=O)[C@H](CC(C)C)NC(=O)[C@H](CC(C)C)NC(=O)[C@H](CC(=O)O)NC(=O)[C@H](CCC(=O)O)NC(=O)[C@H](C)NC(=O)[C@H](Cc1ccccc1)N(C)C(=O)[C@H](Cc1ccccc1)NC(=O)[C@H](C(C)C)N(C)C(=O)[C@H](CC(C)C)NC(=O)[C@H](CCCCN)NC(=O)[C@@H](N)CCC(N)=O)[C@@H](C)CC)[C@@H](C)CC)C(=O)N[C@H](C(=O)NCC(=O)NCC(=O)N[C@H](C(=O)N[C@H](C(=O)O)C(C)C)C(C)C)C(C)C
Consider B4, for which the Kd in assay [1] was 38 nM; in assay [2], 77.3 nM.

B5: L3-LF (peptide)
peptide: H-QK[NMeL]V[NMeF]FAEDLLLNKGAIIGL[Nle]VGGVV-OH
SMILES: CCCC[C@H](NC(=O)[C@H](CC(C)C)NC(=O)CNC(=O)[C@@H](NC(=O)[C@@H](NC(=O)[C@H](C)NC(=O)CNC(=O)[C@H](CCCCN)NC(=O)[C@H](CC(N)=O)NC(=O)[C@H](CC(C)C)NC(=O)[C@H](CC(C)C)NC(=O)[C@H](CC(C)C)NC(=O)[C@H](CC(=O)O)NC(=O)[C@H](CCC(=O)O)NC(=O)[C@H](C)NC(=O)[C@H](Cc1ccccc1)NC(=O)[C@H](Cc1ccccc1)N(C)C(=O)[C@@H](NC(=O)[C@H](CC(C)C)N(C)C(=O)[C@H](CCCCN)NC(=O)[C@@H](N)CCC(N)=O)C(C)C)[C@@H](C)CC)[C@@H](C)CC)C(=O)N[C@H](C(=O)NCC(=O)NCC(=O)N[C@H](C(=O)N[C@H](C(=O)O)C(C)C)C(C)C)C(C)C
As to B5, the Kd in assay [1] amounted to 2.6 nM; in assay [2] it was 143 nM.

B6: F3-LF (peptide)
peptide: H-QK[NMeL]V[NMeF]FAEDFFFNKGAIIGL[Nle]VGGVV-OH
SMILES: CCCC[C@H](NC(=O)[C@H](CC(C)C)NC(=O)CNC(=O)[C@@H](NC(=O)[C@@H](NC(=O)[C@H](C)NC(=O)CNC(=O)[C@H](CCCCN)NC(=O)[C@H](CC(N)=O)NC(=O)[C@H](Cc1ccccc1)NC(=O)[C@H](Cc1ccccc1)NC(=O)[C@H](Cc1ccccc1)NC(=O)[C@H](CC(=O)O)NC(=O)[C@H](CCC(=O)O)NC(=O)[C@H](C)NC(=O)[C@H](Cc1ccccc1)NC(=O)[C@H](Cc1ccccc1)N(C)C(=O)[C@@H](NC(=O)[C@H](CC(C)C)N(C)C(=O)[C@H](CCCCN)NC(=O)[C@@H](N)CCC(N)=O)C(C)C)[C@@H](C)CC)[C@@H](C)CC)C(=O)N[C@H](C(=O)NCC(=O)NCC(=O)N[C@H](C(=O)N[C@H](C(=O)O)C(C)C)C(C)C)C(C)C
With B6, the figures for the Kd in assay [1] and in assay [2] were 431 nM and 37.6 nM, respectively.
